The values that follow come from patent publication US20240052038A1.

Like-named read-outs stand apart in the source and are kept apart here.

Experiment [1] has as its target mouse PD-L1 on CD3+ T lymphocytes (mouse) (UniProt Q9EP73). Description: receptor occupancy on blood CD3+ T cells by flow cytometry, mice dosed with 1.5 mg/mouse, day 10.
Experiment [2] shares this target. Description: receptor occupancy on blood CD3+ T cells by flow cytometry, correlated with serum antibody concentration after a single injection in mice. For orientation: Flow cytometry measures light scatter and fluorescence of single cells or particles in a stream.
Experiment [3] concerns the target Fc-γ receptors expressed on the immune cells. Put plainly: cell-based or functional assay.
For experiment [4] the target is unchanged. Description: cell-based or functional assay. The source holds these as a separate data set.

mouse PD-L1 on CD3+ T lymphocytes (mouse), sequence (Q9EP73 19-290): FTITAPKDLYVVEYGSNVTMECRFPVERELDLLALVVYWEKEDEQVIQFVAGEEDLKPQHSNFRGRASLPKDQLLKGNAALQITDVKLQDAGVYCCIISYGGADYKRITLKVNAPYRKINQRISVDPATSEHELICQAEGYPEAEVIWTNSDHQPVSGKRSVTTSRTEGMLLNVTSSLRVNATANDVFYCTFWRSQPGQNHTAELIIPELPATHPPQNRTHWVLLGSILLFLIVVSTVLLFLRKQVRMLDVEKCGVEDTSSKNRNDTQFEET

“rat anti-mouse PD-L1 monoclonal antibody (clone 10F.9G2, BioXCell)” showed a receptor occupancy in experiment [1] above 60%. This substance also came in with a serum antibody concentration above which complete target occupancy was achieved in experiment [2] of 1 nM.
In experiment [3], biosimilar of atezolizumab (antibody) had an EC50 (ADCC, CHO-K1/PD-L1 target cells, E/T 25:1; no dose response curve) of 9.5 ng/mL and a Target cell lysis (ADCC, CHO-K1/PD-L1 target cells, E/T 25:1) of 1.4%.
For the substance Rituximab (antibody), in experiment [4], the EC50 (ADCC, Raji/CD-20 target cells, E/T 25:1) is 2.1 ng/mL and the Target cell lysis (ADCC, Raji/CD-20 target cells, E/T 25:1) turned out to be 53.5%. For the same substance, in experiment [3], the EC50 (ADCC, Raji/CD-20 target cells, E/T 25:1) turned out to be 1.9 ng/mL; the Target cell lysis (ADCC, Raji/CD-20 target cells, E/T 25:1) came to 43.6%; the Target cell lysis (ADCC, Raji/CD-20 target cells, PBMC effectors, E/T 25:1) came to 48.8%.
